Laboratory results as given in patent US20070054863A1 (SANFORD BURNHAM MEDICAL RESEARCH INSTITUTE, published 2007).
[ ]: non-standard residue; d: D form. The star is where a group is joined. FITC = O=C1OC2(c3ccc(O)cc3Oc3cc(O)ccc32)c2ccc(NC(=S)*)cc21; Ahx = NCCCCCC(=O)O

What was measured:
Nur77 = target: T1, Nur77 (Homo sapiens (Human), UniProt P22736 1-598); test: not described
T1 construct: also called TR3; NGFI-B

GST-Bcl-XL = target: T2, GST-Bcl-XL (UniProt P08515 1-218 = GST; Q07817 1-211); test: fluorescence polarization
T2 construct: Control protein in FP and CD assays
T2 sequence (P08515 1-218, tags or fused parts left off): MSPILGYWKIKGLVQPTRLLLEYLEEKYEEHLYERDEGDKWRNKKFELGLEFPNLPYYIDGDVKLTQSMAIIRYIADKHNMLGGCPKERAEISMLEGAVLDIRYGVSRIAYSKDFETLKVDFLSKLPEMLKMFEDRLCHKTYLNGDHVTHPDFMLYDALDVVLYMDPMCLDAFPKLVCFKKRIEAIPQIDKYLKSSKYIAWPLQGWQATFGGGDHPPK
Description: (§1) Fluorescence polarization (FP) analysis was used to determine whether NuBCPs interacted directly with Bcl-2. […] GST-Bcl-2, but not GST-Bcl-XL or GST, induced a concentration-dependent FP of FITC-NuBCP-9-r8 and FITC-D-NuBCP-9-r8, while FITC-NuBCP-9/AA-r8 was little affected (FIG. 2C-E). […] Thus, NuBCP-9 and D-NuBCP-9 bind directly and competitively to Bcl-2.
(§2) Fluorescence polarization (FP) assays. GST-Bcl-2, GST-Bcl-XL, or GST protein was briefly incubated with FITC-conjugated peptide with or without competitors in Greiner Fluotrac 600 96-well microplates. Fluorescence polarization was recorded using an Analyst HT 96-384 microplate reader (Molecular Devices, Sunnyvale, Calif.) with excitation wavelength set at 485 nm and dynamic polarizer for emission at 530 nm.

GST = target: T3, GST (UniProt P08515 1-218 = GST); test: fluorescence polarization
T3 construct: Control protein in FP and CD assays; also called GST protein
T3 sequence (P08515 whole entry): as the sequence (P08515 1-218, tags or fused parts left off) above
Description: as §1, §2

GST-Bcl-2 [1] = target: T4, GST-Bcl-2 (UniProt P08515 1-218 = GST; P10415 1-218); test: fluorescence polarization competition
T4 construct: Bacterially expressed, purified GST fusion used in FP, CD and in vitro immunoprecipitation; also called purified GST-Bcl-2 protein; bacterially expressed Bcl-2
T4 sequence (P08515 1-218, tags or fused parts left off): as above
Description: as §1, §2

Bcl-2 [2] = target: T5, Bcl-2 (UniProt P10415 1-239); test: immunoprecipitation
T5 construct: Cellular Bcl-2 in co-immunoprecipitation and immunostaining assays; also called endogenous Bcl-2
T5 sequence (P10415 whole entry): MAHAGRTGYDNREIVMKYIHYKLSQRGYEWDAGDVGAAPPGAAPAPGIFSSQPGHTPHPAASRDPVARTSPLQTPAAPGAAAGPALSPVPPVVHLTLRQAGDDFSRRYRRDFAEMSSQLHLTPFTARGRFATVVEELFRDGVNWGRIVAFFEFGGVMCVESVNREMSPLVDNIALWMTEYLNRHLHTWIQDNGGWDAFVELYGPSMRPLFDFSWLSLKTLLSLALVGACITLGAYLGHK

Bcl-2 [3] = target: T5, Bcl-2; test: not described at this place
GST-Bcl-2 [4] = target: T4, GST-Bcl-2; test: circular dichroism of GST-Bcl-2 with peptide, non-linear regression, one-site-binding model
Description: We then explored whether the Bcl-2 conformational change by Bcl-2 was a direct consequence of Nur77 binding. Experiments were performed to determine whether NuBCPs could induce a conformational change of bacterially expressed Bcl-2. To this end, the ability of purified GST-Bcl-2 protein to react with anti-Bcl-2/BH3 antibody in the presence of NuBCP was analyzed by immunoprecipitation assay. […] In contrast, NuBCP-9, D-NuBCP-9 and NuBCP-9/AA had no effect on CD spectra for GST or Bcl-XL (FIGS. 9-11). Thus, the NuBCP-induced Bcl-2 conformational change observed in cells can be accounted for by direct binding of NuBCPs to Bcl-2.
Circular dichroism (CD) spectroscopy. Stock solutions of 3 mM peptide in 30% acetonitrile/water were added to 0.5 mL of 2 μM purified GST-proteins in PBS, pH 7.6. CD spectra were obtained in a 0.2 cm pathlength cell at 20° C. using an AVIV 62 DS spectropolarimeter for a wavelength range from 200 to 260 nm with a step size of 1 nm averaged for 5 sec. Three spectra were corrected for background and averaged for each sample. The Kd was determined using nonlinear regression analysis for a one-site-binding model (χ2>0.98). Stoichiometry was determined from a […] (Jones, G. et al. 2002 Tet. Let. 43 :6079-6082).

B1: Bfl-1 (other, UniProt Q16548 1-175, looked up)
chain: MTDCEFGYIYRLAQDYLQCVLQIPQPGSGPSKTSRVLQNVAFSVQKEVEKNLKSCLDNVNVVSVDTARTLFNQVMEKEFEDGIINWGRIVTIFAFEGILIKKLLRQQIAPDVDTYKEISYFVAEFIMNNTGEWIRQNGGWENGFVKKFEPKSGWMTFLEVTGKICEMLSLLKQYC
- binding result (Nur77): binds

B2: FITC-NuBCP-9-r8 (peptide)
peptide: {FITC}-FSRSLHSLLG[Ahx][dR][dR][dR][dR][dR][dR][dR][dR]-NH2
modifications: not fully specified
notes: The point of attachment of FITC is not described beyond the name; also called FITC-L-NuBCP-9-r8
- binding result (GST-Bcl-XL): no binding
- binding result (GST): no binding

Binder: Ac-ASRSLHSLA-NH2 (Unconjugated form) [NuBCP-9/AA (unconjugated)]
- binding result (GST-Bcl-2 [1]): no binding

B3: NuBCP-20-r8 (peptide)
peptide: GDWIDSILAFSRSLHSLLVDKKCXRRRRRRRR
modifications: not fully specified; N-terminal acetyl; C-terminal Cys thiol linked to chloroacetylated 6-aminohexanoyl (X); eight D-arginines (r8)
notes: also called NuBCP-20-r8-peptide; TR3 peptide
- binding result (Bcl-2 [2]): binds

B4: Bcl-B (other, UniProt Q9HD36 1-204, looked up)
chain: MVDQLRERTTMADPLRERTELLLADYLGYCAREPGTPEPAPSTPEAAVLRSAAARLRQIHRSFFSAYLGYPGNRFELVALMADSVLSDSPGPTWGRVVTLVTFAGTLLERGPLVTARWKKWGFQPRLKEQEGDVARDCQRLVALLSSRLMGQHRAWLQAQGGWDGFCHFFRTPFPLAFWRKQLVQAFLSCLLTTAFIYLWTRLL
- binding result (Nur77): binds

B5: Nur77 fragment DC-3 (other)
chain: GLVLHRLQCARGFGDWIDSILAFSRSLHSLLVDVPAFACLSALVLITDRHGLQEPRRVEELQNRIASCLKEHVAAVAGEPQPASCLSRLLGKLPELRTLCTQGLQRIFYLKLEDLVPPPPIIDKIFMDTLPF
- binding result (Bcl-2 [3]): binds

Binder: Ac-FSRSLHSLL-NH2 [NuBCP-9 (unconjugated)]
- Kd (GST-Bcl-2 [4]): 2100 nM
